We go through two molecules from patent US20170174789A1 (Regeneron, published 2017).

Assay [1] addresses T1, hTie2-mFc (human).
T1 chain: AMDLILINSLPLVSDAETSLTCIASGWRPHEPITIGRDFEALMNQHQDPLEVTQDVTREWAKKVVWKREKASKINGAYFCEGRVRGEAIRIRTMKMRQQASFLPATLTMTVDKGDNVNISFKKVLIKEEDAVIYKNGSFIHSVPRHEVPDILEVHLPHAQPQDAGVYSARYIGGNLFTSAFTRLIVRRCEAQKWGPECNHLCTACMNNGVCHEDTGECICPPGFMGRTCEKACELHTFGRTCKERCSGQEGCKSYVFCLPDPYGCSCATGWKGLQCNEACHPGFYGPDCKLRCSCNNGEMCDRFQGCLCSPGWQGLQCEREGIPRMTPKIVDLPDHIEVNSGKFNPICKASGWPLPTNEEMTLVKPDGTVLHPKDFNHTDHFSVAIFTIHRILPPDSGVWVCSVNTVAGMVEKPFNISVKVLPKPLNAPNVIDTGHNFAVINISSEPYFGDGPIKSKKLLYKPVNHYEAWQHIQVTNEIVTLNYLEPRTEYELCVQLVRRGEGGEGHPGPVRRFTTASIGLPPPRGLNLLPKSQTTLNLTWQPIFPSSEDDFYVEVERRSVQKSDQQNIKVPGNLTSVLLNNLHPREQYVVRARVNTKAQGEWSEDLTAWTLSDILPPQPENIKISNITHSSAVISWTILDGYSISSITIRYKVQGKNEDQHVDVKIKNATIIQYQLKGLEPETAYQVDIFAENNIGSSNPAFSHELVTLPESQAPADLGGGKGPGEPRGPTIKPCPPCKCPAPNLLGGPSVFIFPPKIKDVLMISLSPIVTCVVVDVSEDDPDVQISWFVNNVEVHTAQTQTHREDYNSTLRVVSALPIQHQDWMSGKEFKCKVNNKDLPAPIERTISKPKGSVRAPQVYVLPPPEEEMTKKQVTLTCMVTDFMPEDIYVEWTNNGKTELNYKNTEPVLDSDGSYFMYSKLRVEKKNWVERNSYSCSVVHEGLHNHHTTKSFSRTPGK
Kind of assay: Luminex beads, 25 ug/ml mAb. How it is done: (§1) For binding, 25 μl of anti-Tie2 antibody (25 μg/ml) was added to 75 μl of the above created Luminex bead mixture (3×10³ beads per construct) in binding buffer (PBS, 0.05% Tween 20, 1 mg/ml BSA, 0.05% sodium azide) into a 96 well filter plate (Millipore). Incubation was at room temperature (RT) for 90 min or overnight at 4° C. with shaking. The beads were washed 3× with washing buffer (PBS+0.05% Tween 20) resuspended in 100 μl binding buffer containing PE (phycoerythrine)-labeled anti human kappa or PE-labeled anti mouse Fab secondary antibody and incubated at RT for 45 min with shaking. Samples were washed 2× more and binding signal (MFI) for each bead was determined using a Luminex L200 or FLEXMAP3D instrument. Bead linked human Tie2 was used as positive control and bead linked human Tie1 was used to measure family cross-reactivity. In general MFI signals greater than 500 units represent significant binding.

Assay [2] has as its target T2, hTie2 (FN) (human, UniProt Q02763 445-730).
T2 construct: also called hTie2 (FN)-hFc
Kind of assay: Luminex beads, 25 ug/ml mAb. Here is the method: as §1

The target of assay [3] is T3, hTie2 (Ig3-FN) (human, UniProt Q02763 350-730).
T3 construct: also called hTie2 (Ig3, FN)-hFc
Put plainly: Luminex beads, 25 ug/ml mAb. How it is done: as §1

For assay [4], the target named is T1, hTie2-mFc. Put plainly: SPR Biacore 37C, mAb captured. Here is the method:
(Tables 3-6). Measurements were conducted on a Biacore 2000 or T200 instrument.
For antibodies with a mouse constant region (designated H1M or H2M), antibodies were immobilized onto an anti-mouse Fc sensor surface and different concentrations of human, mouse or rat Tie2 constructs (hTie2-His, mTie2-hFc and rTie2-hFc) were injected over the antibody captured surface. For antibodies in the human IgG format (designated H1H or H4H), either an anti-human Fc sensor surface (hTie2-His and hTie2-mFc) or anti-human Fab sensor surface (mTie2-hFc and rTie2-hFc) was employed depending on the Tie-2 construct applied to the antibody captured surface. Amino acid sequences of the constructs used in this Example are as follows: hTie2-His (SEQ ID NO:2); hTie2-hFc (SEQ ID NO:3); hTie2-mFc (SEQ ID NO:4); rTie2-hFc (SEQ ID NO:5); and mTie2-hFc (SEQ ID NO:6).
Kinetic rate constants—association rate (ka) and dissociation rate (kd) were determined by fitting the real time binding sensorgrams to a 1:1 binding model with mass transport limitation using Scrubber 2.0 curve fitting software. The equilibrium dissociation constant (KD) and dissociative half-life (T½) were calculated from the kinetic rate constants as: KD (M)=kd/ka; and T½ (min)=(In2/(60*kd).).
(Surface plasmon resonance follows binding to a sensor surface in real time, without labels.)

The target in assay [5] is T4, hTie2-His (human, UniProt Q02763 23-745).
T4 construct: also called ecto-Tie2 fused to 6xHis; biotin-Tie2-His
Kind of assay: blocking ELISA: antibody premixed with 0.8 nM biotin-hTie2-His, binding to plate-coated Bow-Ang2. Here is the method: Tie2 is known to interact with angiopoietins (Ang1, Ang2, Ang3 and Ang4). An initial set of experiments was therefore conducted to evaluate the ability of anti-Tie2 antibodies to block Tie2 binding to Ang2. In this first set of experiments, a quantitative blocking immunoassay was utilized. Briefly, solutions of 0.8 nM biotinylated ecto-Tie2 fused to 6×His (SEQ ID NO:2) were premixed with anti-Tie2 antibody ranging from ˜50 nM to 0 nM in serial dilutions. After a 1-hour incubation at room temperature, the amount of Tie2-His bound to plate coated Bow-Ang2 was measured by sandwich ELISA. Bow-Ang2 (SEQ ID NO:13), an Ang2 construct that comprises the Fc domain of hIgG1 flanked by one FD domain of Ang2 at both termini, was coated at 2 μg/ml on a 96 well microtiter plate and blocked with BSA. Plate-bound biotin-Tie2-His was detected using HRP conjugated streptavidin, and developed using BD OptEIA™ (BD Biosciences Pharmingen, San Diego, Calif.). Signals of OD₄₅₀ nm were recorded and data was analyzed using GraphPad Prism to calculate IC₅₀ values. IC₅₀s were defined as the amount of antibody required to reduce 50% of biotin-Tie2-His detectable to plate bound Bow-Ang2 ligand. In Table 9, an antibody is designated an “enhancer” if the addition of the antibody increases the amount of Tie2-His bound to the Bow-Ang2-coated surface relative to the no antibody control.

T3 sequence (Q02763 350-730 limits assumed): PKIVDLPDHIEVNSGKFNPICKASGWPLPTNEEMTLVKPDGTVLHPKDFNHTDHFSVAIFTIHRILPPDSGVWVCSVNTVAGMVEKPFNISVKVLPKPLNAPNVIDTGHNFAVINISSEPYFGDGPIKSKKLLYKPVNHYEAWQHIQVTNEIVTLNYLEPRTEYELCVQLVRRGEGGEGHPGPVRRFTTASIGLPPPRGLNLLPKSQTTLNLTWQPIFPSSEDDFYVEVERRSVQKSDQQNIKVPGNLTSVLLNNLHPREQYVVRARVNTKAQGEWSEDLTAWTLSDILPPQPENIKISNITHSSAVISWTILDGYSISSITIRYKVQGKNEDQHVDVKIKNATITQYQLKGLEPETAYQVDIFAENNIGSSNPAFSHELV
T2 sequence (Q02763 445-730 limits assumed): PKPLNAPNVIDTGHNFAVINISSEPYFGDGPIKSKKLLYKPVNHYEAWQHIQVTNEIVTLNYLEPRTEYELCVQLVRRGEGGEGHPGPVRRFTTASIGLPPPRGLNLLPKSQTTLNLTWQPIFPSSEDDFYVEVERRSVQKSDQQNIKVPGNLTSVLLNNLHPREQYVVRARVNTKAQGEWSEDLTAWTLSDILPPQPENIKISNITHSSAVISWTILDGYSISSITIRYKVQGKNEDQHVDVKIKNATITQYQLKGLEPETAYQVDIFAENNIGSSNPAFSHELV

B1: H1H2340B (antibody, V domains shown)
VH: EVQLVESGGGLVQPGGSLRLSCAASGFTFSRYWMSWVRQAPGMGLEWVANIKQDGSEKNYVDSVKGRFTVSRDNAKNSLYLQMNSLRAEDTAVYYCASAIFGVVITSYWGQGTLVTVSS
VL: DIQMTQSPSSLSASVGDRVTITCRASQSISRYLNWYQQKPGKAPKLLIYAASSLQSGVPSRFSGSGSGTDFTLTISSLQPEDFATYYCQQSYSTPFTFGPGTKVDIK
notes: Tested as H1H2340B (human IgG format, H1H prefix); also called HIH2340B
By Kd is commonly meant the concentration at which binding is half-saturated. High values mean lower affinity, low ones higher affinity. Usually koff stands for the rate constant with which the complex falls apart. A low value points to slow dissociation. For orientation: kon means a measure of how fast the partners come together. As usually defined, the IC50 is the concentration needed to halve the response being measured. In assay [1], B1 had an MFI of 3010 MFI. In assay [2], this molecule had an MFI of 5150 MFI. Besides, the MFI in assay [3] is 4600 MFI. Moreover, in assay [4], the Kd was 2.58 nM, the “T½” value was determined as 22 min, the koff was 0.000515 s⁻¹ and the kon is 200000 M⁻¹ s⁻¹. In assay [5], the IC50 is 1.03 nM.

B2: H1H2339B (antibody, V domains shown)
VH: EVQLVESGGGLVQPGGSLRLSCAASGFTFSSYAMNWVRQAPGKGLEWVSSISGSGGNTYYADSVKGRFTISRDNSKNTLYLQLNSLRAEDTAVYYCAKDHSLSWYRNVFDIWGQGTMVTVSS
VL: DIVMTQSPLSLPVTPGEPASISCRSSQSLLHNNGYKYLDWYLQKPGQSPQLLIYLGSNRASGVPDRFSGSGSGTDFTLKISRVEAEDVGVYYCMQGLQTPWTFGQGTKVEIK
notes: Tested as H1H2339B (human IgG format, H1H prefix)
Take B2: the MFI in assay [1] worked out at 2910 MFI. Also, the MFI in assay [2] amounted to 4530 MFI. Moreover, the MFI in assay [3] was 3840 MFI. For the same molecule, in assay [4], the Kd turned out to be 1.53 nM, the “T½” value was 39 min, the koff came out at 0.000295 s⁻¹ and the kon turned out to be 193000 M⁻¹ s⁻¹. Further, in assay [5], the IC50 was found to be 0.189 nM.
